Experimental findings from patent publication US20190322758A1 (IMMUNOPHARMACEUTIC INSTITUTE OF HEFEI RUIDA, published 2019) are described below.

Changes are numbered by the printed parent chain.

The target in the experiment is T1, recombinant LunX protein (antigenic protein fragment of SEQ ID NO: 9 with C-terminal 6His-Tag) (human, UniProt Q9NP55 103-256).
T1 construct: Expressed in E. coli Rosetta (DE3) from pET-22b(+); also called LunX prokaryotic recombinant fusion protein; human LunX protein
T1 sequence: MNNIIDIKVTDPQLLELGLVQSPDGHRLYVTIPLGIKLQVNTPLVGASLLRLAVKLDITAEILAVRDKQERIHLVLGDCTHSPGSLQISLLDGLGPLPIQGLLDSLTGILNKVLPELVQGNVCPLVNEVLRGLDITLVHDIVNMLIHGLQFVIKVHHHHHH
The experiment is described as follows: hybridoma screening, ELISA (and FACS).

B1: anti-LunX murine monoclonal antibody PrAb2 (hybridoma Ab2) (antibody, V domains shown)
VH: QVQLQQSGPELVKPGASVKISCKTSGYAFSRSWMSWVKQRPGQGLEWIGRIYPGDGDTKYSGKFEGKATLTADKSSSTAYMQLSSLTSVDSAVYFCARSGGIQGYGMDYWGQGTSVTVSS
VL: DIVVTQSPAALAVSLGQRATISCRASKSVSTSGYTYMHWYQQKPGQPPKLLIYLASKLESGVPARFSGSGSGTDFTLNIHPVEEEDAATYYCQHSRDLTFGSGTKLEIKR
notes: Mouse monoclonal antibody from hybridoma Ab2; heavy chain about 45 kDa, light chain about 25 kDa
As for B1, the binding result is recorded as “binds”.

B2: anti-LunX murine monoclonal antibody PrAb1 (hybridoma Ab1) (antibody, V domains shown)
VH: B1 VH with K59N, S61N, E65K
VL: B1 VL with V4L, A10S, S32A, T35S, P47T, D97E
notes: Mouse monoclonal antibody from hybridoma Ab1; heavy chain about 45 kDa, light chain about 25 kDa
Turning to B2, the binding result is given as “binds”.
